These results are taken from patent US20180170992A1.

As a reminder, the pKd is −log10 of the Kd, conventionally taken in molar units. In general, koff refers to a measure of how fast the partners let go of each other. As usually defined, the kon is a measure of how fast the partners come together.

pKd: −log10 of the molar value.

In assay [1] the target is IL13Rα2 expressed on the surface of human glioma cells (A172, N10, U251, U87, U118, U373, GBM12, GBM43) and in GBM tissue (human) (UniProt Q14627). As to the kind of experiment: flow cytometry on N10 glioma cells pre-incubated with 10x excess rhIL13 [left table]. (In general: Flow cytometry measures light scatter and fluorescence of single cells or particles in a stream.)

Assay [2] shares this target. The experiment in a line: flow cytometry on N10 glioma cells, isotype control [left table].
For assay [3], the target named is Pngase F-treated rhIL13Rα2hFc (human) (UniProt Q14627). The experiment in a line: plate-bound ELISA on Pngase F-treated rhIL13Rα2hFc. (In general: An ELISA detects its analyte on a solid surface through an enzyme-linked reagent.)
The target of assay [4] is recombinant human IL13Rα2hFc chimera (R&D Systems) (human) (UniProt Q14627). The experiment in a line: SPR, Biacore 3000; mAb immobilised, rhIL13Rα2 in the flow; 1:1 model.

Take control mouse IgG (antibody): the values for the % positive cells in assay [1] and in assay [2] were 0.9% and 1.9%, respectively.
In assay [3], “mAb to IL13Rα2 (clone 83807), R&D Systems (antibody)” yielded a percent decrease of binding against untreated protein of 80%. Also, in assay [4], the pKd is 6.98, the koff was found to be 0.00231 s⁻¹ and the kon amounted to 22300 M⁻¹ s⁻¹.
Turning to “monoclonal antibody to IL13Rα2 (clone B-D13), Santa Cruz Biotechnology”, in assay [4], the negative logarithm of the Kd (pKd) was 7.34, the koff was 0.00499 s⁻¹ and the kon came to 108000 M⁻¹ s⁻¹.
